Patent US20100330095A1 (U3 PHARMA, published 2010)
Numbering of substitutions follows the chain as printed.

T1: human receptor tyrosine kinase AXL transcript variant 1 (human, UniProt P30530 26-894)
T1 sequence: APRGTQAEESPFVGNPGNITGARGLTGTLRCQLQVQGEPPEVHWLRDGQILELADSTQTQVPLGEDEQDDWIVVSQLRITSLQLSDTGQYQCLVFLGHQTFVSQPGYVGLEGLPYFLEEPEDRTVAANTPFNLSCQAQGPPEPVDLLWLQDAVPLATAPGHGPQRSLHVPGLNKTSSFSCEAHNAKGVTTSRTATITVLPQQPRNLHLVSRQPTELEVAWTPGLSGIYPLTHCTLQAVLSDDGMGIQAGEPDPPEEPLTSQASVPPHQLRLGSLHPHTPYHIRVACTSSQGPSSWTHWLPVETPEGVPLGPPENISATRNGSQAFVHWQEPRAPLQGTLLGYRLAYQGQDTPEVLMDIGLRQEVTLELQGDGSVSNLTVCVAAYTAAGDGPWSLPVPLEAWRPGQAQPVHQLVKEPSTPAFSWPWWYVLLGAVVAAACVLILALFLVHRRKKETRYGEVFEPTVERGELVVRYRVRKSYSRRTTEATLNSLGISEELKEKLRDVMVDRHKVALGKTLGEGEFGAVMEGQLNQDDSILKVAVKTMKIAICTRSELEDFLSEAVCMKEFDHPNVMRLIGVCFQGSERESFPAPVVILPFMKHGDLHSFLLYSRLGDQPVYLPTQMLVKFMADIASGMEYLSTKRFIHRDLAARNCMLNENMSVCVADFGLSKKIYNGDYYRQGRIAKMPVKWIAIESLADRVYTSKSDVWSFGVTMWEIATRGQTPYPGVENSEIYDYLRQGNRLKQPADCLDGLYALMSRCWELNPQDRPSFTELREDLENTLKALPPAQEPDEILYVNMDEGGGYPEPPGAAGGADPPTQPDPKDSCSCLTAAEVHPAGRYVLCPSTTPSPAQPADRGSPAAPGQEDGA

T2: human Sky (human, UniProt Q06418 41-890)
T2 construct: whole, on cells; Transiently expressed on HEK293T cells (pcDNA3-hSky); also called hSky
T2 sequence (looked up): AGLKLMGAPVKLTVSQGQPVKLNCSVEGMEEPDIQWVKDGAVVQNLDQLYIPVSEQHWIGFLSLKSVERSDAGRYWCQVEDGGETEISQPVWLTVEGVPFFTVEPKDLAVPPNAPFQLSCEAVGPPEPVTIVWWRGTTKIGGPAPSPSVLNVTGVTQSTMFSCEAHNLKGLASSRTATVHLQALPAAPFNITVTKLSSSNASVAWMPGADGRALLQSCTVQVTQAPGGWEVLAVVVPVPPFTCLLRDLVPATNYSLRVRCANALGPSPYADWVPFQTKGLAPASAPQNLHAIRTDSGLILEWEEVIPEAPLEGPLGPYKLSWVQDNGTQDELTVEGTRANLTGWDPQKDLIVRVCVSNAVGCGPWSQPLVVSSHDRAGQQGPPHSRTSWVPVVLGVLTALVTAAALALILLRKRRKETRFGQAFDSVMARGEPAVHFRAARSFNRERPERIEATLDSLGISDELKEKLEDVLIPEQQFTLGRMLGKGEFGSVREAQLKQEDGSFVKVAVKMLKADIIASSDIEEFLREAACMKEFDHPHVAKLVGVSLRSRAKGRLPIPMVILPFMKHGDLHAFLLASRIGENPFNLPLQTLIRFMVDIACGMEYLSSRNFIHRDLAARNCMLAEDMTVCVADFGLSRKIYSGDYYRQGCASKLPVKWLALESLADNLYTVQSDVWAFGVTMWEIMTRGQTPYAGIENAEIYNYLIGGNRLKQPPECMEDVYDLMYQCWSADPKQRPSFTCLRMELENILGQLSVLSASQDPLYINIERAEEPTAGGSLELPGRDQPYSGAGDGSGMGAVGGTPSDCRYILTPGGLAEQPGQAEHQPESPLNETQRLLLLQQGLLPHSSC

B1: I 11B7 (antibody, V domains shown)
VH: EVQLQESGPGLVKPSQSLSLTCSVTGYSITSNYWGWIRKFPGDKMEWMGYITYSGSTSYNPSLKSRISITRDTSKNQFFLQLNSVTSEDTATYYCAITTFYYWGQGVMVTVSS
VL: DIQMTQAPSSLPASLGDRVTITCRASQDIGNYLRWFQQKPGKSPRLMISGATNLAAGVPSRFSGSRSGSDYSLTISSLESEDMADYYCLQSKESPWTFGGGTKLELK
notes: rat hybridoma antibody, antagonistic
B2: I 10D12 (antibody, V domains shown)
VH: EVQLQESGPGLVKPSQSLSLTCSVTGYSITSNYWGWIRKFPGNKMEWMGYITNSGGTAYNPSLKSRISITRDTSKNQFFLQLNSVIPEDSATYFCSRTPWDWGQGVMVTVSS
VL: B1 VL with T22A, L73R
notes: rat hybridoma antibody, antagonistic; subclass G1
B3: III 11D5 (antibody, rat IgG2a, V domains shown)
VH: EVQLQESGPGLVKPSQSLSLTCSVTGYSITSNYWGWIRKFPGNKMEWIGHITNSGNTTYNPSLKSRISISRDTSRNQFFLQLNSVTTEDTATYYCAKGAFDYWGQGVMVTVSS
VL: DIQMTQSPSSMSTSLGDRVTITCRASQDIGNYLSWFQQKVGKSPRRMIYGAIKLAVGVPSRFSGSRSGSDYSLTISSLESEDMAIYYCLQYIQFPLTFGSGTKLELK
notes: as for B1

What was measured:
[1] = target: T1, human receptor tyrosine kinase AXL …; test: cell-based or functional assay
[2] = target: T1, human receptor tyrosine kinase AXL …; test: FACS Scatchard (apparent KD) on human AXL overexpressing NIH3T3 cells
Experimental: Human AXL overexpression NIH3T3 cells were harvested by incubation with 10 mM EDTA in PBS and resuspended at 6 million cells per ml in FACS buffer (PBS pH 7.4, 3% FCS, 0.1% NaN₃). […] Antibody binding was allowed to proceed for 2 hours on ice. Then, cells were washed twice with 250 μl FACS buffer per well, and resuspended in 200 μl of secondary antibody (anti-rat-PE; Jackson) diluted 1:50 in FACS buffer. After 45 minutes of incubation, cells were again washed twice in FACS buffer and resuspended in […] PBS for FACS analysis. Analysis was carried out on a Beckman-Coulter FACS FC500. To determine the apparent affinity constant KDapp, mean fluorescence values were plotted against the ratio of mean fluorescence and the corresponding antibody concentration ([M]).

[3] = target: T2, human Sky; test: flow cytometry, transiently transfected HEK293T cells
Experimental: FIG. 3. Flow cytometry analysis of cross-reactivity of rat-anti AXL antibodies with mouse and cynomolgus monkey AXL as well as human Mer and Sky. HEK293T fibroblasts were transiently transfected with pcDNA3, pcDNA3-hAXL, pcDNA3 mAXL, pcDNA3-cyAXL, pcDNA3-hMer, or pcDNA3-hSky. […] See text for details.
For FACS analysis, 2×10⁵ cells were harvested with 10 mM EDTA in PBS, washed once with FACS buffer (PBS, 3% FCS, 0.4% azide) and seeded on a 96 well round bottom plate. […] After incubation on ice for 1 h, cells were washed twice with chilled FACS buffer and resuspended with PE-conjugated donkey anti-rat (Jackson) secondary antibody diluted 1:50 in FACS buffer (100 μl/well) or PE-conjugated donkey anti-mouse secondary antibody for control. Protected from light, cells were incubated on ice for 30 min, washed twice with FACS buffer and analyzed using an Epics XL-MCL flow cytometer (Beckman Coulter).

Binder | IC50 of VEGF-A-stimulated HUVEC spheroid sprouting [1] [nM] | Kd [2] [nM] | binding result [3]
B1 | 98 | 0.38 | no binding (tested: 10 µg/ml)
B2 | – | – | no binding (tested: 10 µg/ml)
B3 | 700 | 0.81 | no binding (tested: 10 µg/ml)
